Measurements as given in doi:10.1101/552281 (bioRxiv, 2019).
Like-named read-outs stand apart in the source and are kept apart here.

How the values were obtained:
[1] = molecular target: catalytic domain of human phenylalanine hydroxylase (hPAH-CD) (human); assay: crystal structure
crystal structure = molecular target: the molecule itself; assay: crystal structure
cryo-EM structure = molecular target: the molecule itself; assay: cryo-EM structure
[2] = molecular target: the molecule itself

Molecule | stoichiometry N [2] | further results
catalytic domain of human phenylalanine hydroxylase (hPAH-CD) (domain or fragment) | – | stoichiometry N [1]: 2
ΔN13-hPAH (human phenylalanine hydroxylase lacking the N-terminal 13 residues) (enzyme, UniProt P00439 14-452, looked up) KLSDFGQETSYIEDNCNQNGAISLIFSLKEEVGALAKVLRLFEENDVNLTHIESRPSRLKKDEYEFFTHLDKRSLPALTNIIKILRHDIGATVHELSRDKKKDTVPWFPRTIQELDRFANQILSYGAELDADHPGFKDPVYRARRKQFADIAYNYRHGQPIPRVEYMEEEKKTWGTVFKTLKSLYKTHACYEYNHIFPLLEKYCGFHEDNIPQLEDVSQFLQTCTGFRLRPVAGLLSSRDFLGGLAFRVFHCTQYIRHGSKPMYTPEPDICHELLGHVPLFSDRSFAQFSQEIGLASLGAPDEYIEKLATIYWFTVEFGLCKQGDSIKAYGAGLLSSFGELQYCLSEKPKLLPLELEKTAIQNYTVTEFQPLYYVAESFNDAKEKVRNFAATIPRPFSVRYDPYTQRIEVLDNTQQLKILADSINSEIGILCSALQKIK | – | stoichiometry N (crystal structure): 4
full-length human phenylalanine hydroxylase (enzyme, UniProt P00439 1-452, looked up) MSTAVLENPGLGRKLSDFGQETSYIEDNCNQNGAISLIFSLKEEVGALAKVLRLFEENDVNLTHIESRPSRLKKDEYEFFTHLDKRSLPALTNIIKILRHDIGATVHELSRDKKKDTVPWFPRTIQELDRFANQILSYGAELDADHPGFKDPVYRARRKQFADIAYNYRHGQPIPRVEYMEEEKKTWGTVFKTLKSLYKTHACYEYNHIFPLLEKYCGFHEDNIPQLEDVSQFLQTCTGFRLRPVAGLLSSRDFLGGLAFRVFHCTQYIRHGSKPMYTPEPDICHELLGHVPLFSDRSFAQFSQEIGLASLGAPDEYIEKLATIYWFTVEFGLCKQGDSIKAYGAGLLSSFGELQYCLSEKPKLLPLELEKTAIQNYTVTEFQPLYYVAESFNDAKEKVRNFAATIPRPFSVRYDPYTQRIEVLDNTQQLKILADSINSEIGILCSALQKIK | – | stoichiometry N (cryo-EM structure): 4
hPAH mutant Y138F (enzyme, human, UniProt P00439 1-452, looked up) MSTAVLENPGLGRKLSDFGQETSYIEDNCNQNGAISLIFSLKEEVGALAKVLRLFEENDVNLTHIESRPSRLKKDEYEFFTHLDKRSLPALTNIIKILRHDIGATVHELSRDKKKDTVPWFPRTIQELDRFANQILSFGAELDADHPGFKDPVYRARRKQFADIAYNYRHGQPIPRVEYMEEEKKTWGTVFKTLKSLYKTHACYEYNHIFPLLEKYCGFHEDNIPQLEDVSQFLQTCTGFRLRPVAGLLSSRDFLGGLAFRVFHCTQYIRHGSKPMYTPEPDICHELLGHVPLFSDRSFAQFSQEIGLASLGAPDEYIEKLATIYWFTVEFGLCKQGDSIKAYGAGLLSSFGELQYCLSEKPKLLPLELEKTAIQNYTVTEFQPLYYVAESFNDAKEKVRNFAATIPRPFSVRYDPYTQRIEVLDNTQQLKILADSINSEIGILCSALQKIK | 4 | –
hPAH mutant S23A (enzyme, human, UniProt P00439 1-452, looked up) MSTAVLENPGLGRKLSDFGQETAYIEDNCNQNGAISLIFSLKEEVGALAKVLRLFEENDVNLTHIESRPSRLKKDEYEFFTHLDKRSLPALTNIIKILRHDIGATVHELSRDKKKDTVPWFPRTIQELDRFANQILSYGAELDADHPGFKDPVYRARRKQFADIAYNYRHGQPIPRVEYMEEEKKTWGTVFKTLKSLYKTHACYEYNHIFPLLEKYCGFHEDNIPQLEDVSQFLQTCTGFRLRPVAGLLSSRDFLGGLAFRVFHCTQYIRHGSKPMYTPEPDICHELLGHVPLFSDRSFAQFSQEIGLASLGAPDEYIEKLATIYWFTVEFGLCKQGDSIKAYGAGLLSSFGELQYCLSEKPKLLPLELEKTAIQNYTVTEFQPLYYVAESFNDAKEKVRNFAATIPRPFSVRYDPYTQRIEVLDNTQQLKILADSINSEIGILCSALQKIK | 4 | –
hPAH mutant Y377F (enzyme, human, UniProt P00439 1-452, looked up) MSTAVLENPGLGRKLSDFGQETSYIEDNCNQNGAISLIFSLKEEVGALAKVLRLFEENDVNLTHIESRPSRLKKDEYEFFTHLDKRSLPALTNIIKILRHDIGATVHELSRDKKKDTVPWFPRTIQELDRFANQILSYGAELDADHPGFKDPVYRARRKQFADIAYNYRHGQPIPRVEYMEEEKKTWGTVFKTLKSLYKTHACYEYNHIFPLLEKYCGFHEDNIPQLEDVSQFLQTCTGFRLRPVAGLLSSRDFLGGLAFRVFHCTQYIRHGSKPMYTPEPDICHELLGHVPLFSDRSFAQFSQEIGLASLGAPDEYIEKLATIYWFTVEFGLCKQGDSIKAYGAGLLSSFGELQYCLSEKPKLLPLELEKTAIQNFTVTEFQPLYYVAESFNDAKEKVRNFAATIPRPFSVRYDPYTQRIEVLDNTQQLKILADSINSEIGILCSALQKIK | 4 | –
